± gives the uncertainty stated by the source.
Assay: self-splicing fitness, log relative to wild type (ln ratio); higher = more splicing; Tetrahymena group I intron in knt gene, E. coli kanamycin selection, DiMSum; sequences stand for … in CUCUCU…GGAGGGAAAAGUUAUCAGGCAUGCACCUGGUAGCUAGUCUUUAAACCAAUAGAUUGCAUCGGUUUAAAAGGCAAGACCGUCAAAUUGCGGGAAAGGGGUCAACAGCCGUUCAGUACCAAGUCUCAGGGGAAACUUUGAGAUGGCCUUGCAAAGGGUAUGGUAAUAAGCUGACGGACAUGGUCCUAACCACGCAGCCAAGUCCUAAGUCAACAGAUCUUCUGUUGAUAUGGAUGCAGUUCACAGACUAAAUGUCGGUCGGGGAAGAUGUAUUCUUCUCAUAAGAUAUAGUCGGACCUCUCCUUAAUGGGAGCUAGCGGAUGAAGUGAUGCAACACUGGAGCCGCUGGGAACUAAUUUGUAUGCGAAAGUAUAUUGAUUAGUUUUGGAGUACUCGUGGUCG
Method in brief: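 Library with all eight P1ex-region intron nucleotides randomised, intron inside the knt kanamycin-resistance gene on pET-22b(+), in E. coli BL21(DE3). Cells grew overnight at 37°C or 30°C on LB agar with or without 25 μg/mL kanamycin (plus 100 μg/mL carbenicillin, 50 μM IPTG, 0.2% rhamnose), in six replicate transformations. Pooled colonies were amplicon-sequenced on Illumina HiSeq 2500. DiMSum fitness is the error-weighted combination of wild-type-normalised replicate fold changes, kanamycin versus none.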

Sequence	self-splicing fitness (ln) (30 °C)	self-splicing fitness (ln) (37 °C)
UACGAGCAAUAUUACGUCGG	-3.5 ± 0.23	-1.38 ± 0.15
UACGAGCAAUAUUACGUUUG	-3.84 ± 0.27	-1.94 ± 0.17
UACUAGCAAUAUUACGAUUA	-0.867 ± 0.13	0.62 ± 0.16
UACUAGCAAUAUUACGAUUC	-2.3 ± 0.23	-1.76 ± 0.43
UACUAGCAAUAUUACGCACA	-0.646 ± 0.079	0.021 ± 0.092
UACUAGCAAUAUUACGCCAU	-2.57 ± 0.26	-3.06 ± 0.33
UACUAGCAAUAUUACGCCGA	-1.25 ± 0.19	-0.403 ± 0.17
UACUAGCAAUAUUACGCCUU	-1.93 ± 0.15	-0.434 ± 0.13
UACUAGCAAUAUUACGCGCC	–	-1.37 ± 0.37
UACUAGCAAUAUUACGGGCA	-0.178 ± 0.071	0.53 ± 0.11
UACUAGCAAUAUUACGGUUC	-2.29 ± 0.29	-1.63 ± 0.39
UACUAGCAAUAUUACGUAAC	-2.8 ± 0.17	-3.33 ± 0.42
UACUAGCAAUAUUACGUACA	-1.56 ± 0.12	-0.448 ± 0.13
UACUAGCAAUAUUACGUAGG	-4.09 ± 0.35	-1.69 ± 0.22
UACUAGCAAUAUUACGUAGU	-3.62 ± 0.22	-1.65 ± 0.25
UACUAGCAAUAUUACGUAUC	-2.06 ± 0.2	-2.9 ± 0.4
UACUAGCAAUAUUACGUCGC	-4.8 ± 0.46	-3.62 ± 0.24
UACUAGCAAUAUUACGUCUC	-3.59 ± 0.32	-2.93 ± 0.31
UACUAGCAAUAUUACGUUAG	-3.54 ± 0.19	-2.66 ± 0.23

Sequence	self-splicing fitness (ln) (30 °C)	self-splicing fitness (ln) (37 °C)
UACUAGCAAUAUUACGUUGC	-2.38 ± 0.26	-1.85 ± 0.28
UAGAAGCAAUAUUACGACUU	-0.772 ± 0.11	-0.183 ± 0.17
UAGAAGCAAUAUUACGAGAA	-1.7 ± 0.44	-1.55 ± 0.35
UAGAAGCAAUAUUACGAGCG	-0.732 ± 0.096	-0.815 ± 0.13
UAGAAGCAAUAUUACGAGGA	-3.7 ± 0.2	-2.06 ± 0.15
UAGAAGCAAUAUUACGCAGA	-3.4 ± 0.34	-1.79 ± 0.18
UAGAAGCAAUAUUACGCAUC	-3 ± 0.23	-3.37 ± 0.31
UAGAAGCAAUAUUACGCCUA	-0.42 ± 0.13	0.0572 ± 0.14
UAGAAGCAAUAUUACGCGGA	-1.64 ± 0.13	-0.655 ± 0.11
UAGAAGCAAUAUUACGCGUA	-0.436 ± 0.11	-0.472 ± 0.12
UAGAAGCAAUAUUACGCUUU	–	-1.99 ± 0.3
UAGAAGCAAUAUUACGGCGG	-0.497 ± 0.099	0.388 ± 0.12
UAGAAGCAAUAUUACGUAAA	-2.04 ± 0.14	-1.33 ± 0.14
UAGCAGCAAUAUUACGAACU	-0.336 ± 0.18	0.618 ± 0.14
UAGCAGCAAUAUUACGAAUG	-0.736 ± 0.072	-0.47 ± 0.13
UAGCAGCAAUAUUACGACAA	-1.68 ± 0.12	-0.157 ± 0.14
UAGCAGCAAUAUUACGACCC	–	-0.938 ± 0.41
UAGCAGCAAUAUUACGACUG	-0.817 ± 0.14	-0.556 ± 0.18
UAGCAGCAAUAUUACGAGCG	0.035 ± 0.078	0.235 ± 0.098

From the supplement of paper PMC7877785
